Data from patent US20260070974A1 (NONA BIOSCIENCES SUZHOU, published 2026).
Residue numbers refer to the chain shown, from its start.

What was measured:
[1] = target: T1, human Siglec-15 ECD-his protein (Acrobiosystems, Cat #: SG5-H52H3) (human, UniProt Q6ZMC9 20-263); assay: ELISA, coated human Siglec-15 ECD-his
T1 construct: Bought protein; only its extracellular domain stood in the assay; also called human Siglec-15 protein; recombinant human Siglec-15 protein; not shown: his tag
T1 sequence: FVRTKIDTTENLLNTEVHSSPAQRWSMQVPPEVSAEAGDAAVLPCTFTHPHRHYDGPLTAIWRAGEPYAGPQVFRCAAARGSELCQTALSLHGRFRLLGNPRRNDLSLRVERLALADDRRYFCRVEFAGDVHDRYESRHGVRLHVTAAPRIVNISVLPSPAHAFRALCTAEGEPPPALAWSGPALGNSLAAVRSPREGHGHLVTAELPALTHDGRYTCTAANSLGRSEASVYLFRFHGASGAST
Description: […] human Siglec-15 ECD-his protein (Acrobiosystems, Cat #: SG5-H52H3) dissolved in PBS was added to an ELISA plate at 100 μL/well for coating and the plate was incubated overnight at 4° C. The ELISA plate was then blocked with PBST (PBS+0.05% Tween 20) containing 2% BSA at 200 μL/well and incubated at 37° C. for 1 h. The ELISA plate was washed 4 times with PBST. The anti-Siglec-15 antibody diluted in a gradient (5-fold dilution, starting concentration: 6.67 nM) was added to the ELISA plate at 100 μL/well and the plate was incubated at 37° C. for 1 h. The ELISA plate was washed 4 times with PBST. The goat anti-human IgG (H+L)-HRP (1:5000, Jackson, Cat #: 109-035-088) was added at 100 μL/well and the plate was incubated at 37° C. for 1 h. The ELISA plate was washed 4 times with PBST. The TMB substrate (Biopanda, Cat #: TMB-S-003) was added at 100 μL/well, and the plate was incubated at room temperature for 5 min, and then the stop buffer (Solarbio, Cat #: C1058) was added at 100 μL/well to stop the reaction.

[2] = target: T1, human Siglec-15 ECD-his protein …; assay: BLI (Octet RED96), antibody on AHC sensor, Siglec-15 ECD-his as analyte
Description: Recombinant Human Siglec-15 Protein Affinity was determined using an Octet RED96 instrument (ForteBio) and an anti-human IgG Fc capture sensor (AHC biosensor, ForteBio, Cat #: 18-5060) according to the detailed procedures and methods provided by the manufacturer. Specifically, candidate antibodies were each diluted to a final concentration of 6 µg/mL and directly immobilized on AHC biosensors for kinetic measurements. The antigenic protein Siglec-15 ECD-his protein (Acrobiosystems, Cat #: SG5-H52H3) was diluted with 10× Kinetics buffer to 3 concentrations of 60 nM, 30 nM, and 15 nM separately and injected as the analyte for 120 s with a dissociation time of 400 s and then subjected to regeneration with 10 mM glycine HCl (pH 1.5) for 15 s. The association rate (kon) and dissociation rate (kdis) were calculated using a simple one-to-one Languir binding model (Octet Red96 data analysis software). The equilibrium dissociation constant (kD) was calculated as the ratio of kdis/kon.

[3] = target: T2, human Siglec-15 on CHO-K1/human Siglec-15 cells (KYinno, Beijing) (human, UniProt Q6ZMC9 20-328); assay: flow cytometry on CHO-K1/human Siglec-15 cells
T2 sequence: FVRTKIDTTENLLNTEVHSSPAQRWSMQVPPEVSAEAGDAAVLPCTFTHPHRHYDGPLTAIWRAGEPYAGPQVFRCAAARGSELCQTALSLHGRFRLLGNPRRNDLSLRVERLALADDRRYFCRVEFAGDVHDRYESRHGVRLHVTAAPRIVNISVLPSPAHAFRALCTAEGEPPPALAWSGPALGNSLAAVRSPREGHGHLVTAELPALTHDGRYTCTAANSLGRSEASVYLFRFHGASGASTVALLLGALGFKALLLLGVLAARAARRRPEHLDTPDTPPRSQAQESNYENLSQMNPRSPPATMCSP
Description: CHO-K1/human Siglec-15 cells (KYinno, Beijing) were adjusted to a density of 1×10⁶/mL with PBS, and the cell suspension was added to a 96-well V-bottom plate at 100 μL/well. The 96-well V-bottom plate was centrifuged at 1000 rpm for 5 min and washed once with PBS+2% FBS. The cells were resuspended in […] of antibody diluted in a gradient (5-fold dilution, starting concentration: 500 nM) and incubated at 4° C. for 1 h, and PR300066 and hIgG1 were used as positive control and negative control, respectively. After 1 h, the cells were washed twice with PBS+2% FBS. The cells were incubated with 100 μL of Alexa Fluor 488 goat anti-human IgG (Jackson, Cat #: 109-545-098) at 4° C. for 1 h in the dark and then washed twice with PBS+2% FBS. The cells were then resuspended in 200 μL of PBS+2% FBS. The fluorescence intensity of the cells was analyzed using a BD FACSCanto™ II flow cytometer.

B1: PR301289-1 (antibody, human IgG1, kappa, V domains shown)
VH: QVQLVQSGAEVKKPGASVKVSCRASGYTFTSYDINWVRQATGQGLEWMGWMNPHSGDTGYAQNFQGRVTMTWQTSISTAYMELSSLRSEDTAVYYCARRRVGVYYYGMDVWGQGTTVTVSS
VL: ENVLTQSPGTLSLSPGERATLSCRASQSVSSSYFGWYQQKPGQAPRLLIYGASSRATGIPDRFSGSGSGTDFTLTISRLEPEDFAVYYCQQYGSSPITFGQGTRLEIKR
notes: PTM variant of PR301289: HFR3 N/Q; human IgG1/kappa
EC50 [1]: 0.02 nM | Kd [2]: 0.116 nM | koff [2]: 3.89e-05 s⁻¹ | kon [2]: 337000 M⁻¹ s⁻¹

B2: PR301286-1 (antibody, human IgG1, kappa, V domains shown)
VH: QVQLVESGGGVVQPGKSLRLSCAASGFTFSSYGMHWVRQAPGKGLEWVAVIWIDASNRYYAASVKGRFTISRDNSKNTLYLQMNSLRAEDTAVYYCTRGYGDYAYVMDVWGQGASVTVSS
VL: DIVMTQSPLSLPVTPGEPASISCRSSQSLLPGNGYNYLDWYLQKPGQSPQLLIYLGSNRASGVPDRFSGSGSGTDFTLKISRVEAEDVGIYYCMQALQSPLTFGGGTKVEIKR
notes: PTM variant of PR301286: VH(HCDR2) G/A; human IgG1/kappa
EC50 [1]: 0.019 nM | Kd [2]: 0.0162 nM | koff [2]: 3.85e-06 s⁻¹ | kon [2]: 238000 M⁻¹ s⁻¹

B3: PR301286-6 (antibody, human IgG1, kappa, V domains shown)
VH: B2 VH
VL: B2 VL with G34A
notes: PTM variant of PR301286: VH(HCDR2) G/A; VL(LCDR1) G/A; human IgG1/kappa
EC50 [1]: 0.029 nM | Kd [2]: 0.279 nM | koff [2]: 0.000107 s⁻¹ | kon [2]: 384000 M⁻¹ s⁻¹

B4: PR301286-7 (antibody, human IgG1, kappa, V domains shown)
VH: B2 VH
VL: B2 VL with G34T
notes: PTM variant of PR301286: VH(HCDR2) G/A; VL(LCDR1) G/T; human IgG1/kappa
EC50 [1]: 0.025 nM | Kd [2]: 0.361 nM | koff [2]: 0.000137 s⁻¹ | kon [2]: 379000 M⁻¹ s⁻¹

B5: PR301286-3 (antibody, human IgG1, kappa, V domains shown)
VH: B2 VH with A55V
VL: B2 VL
notes: PTM variant of PR301286: VH(HCDR2) G/V; human IgG1/kappa
EC50 [1]: 0.019 nM | Kd [2]: 0.195 nM | koff [2]: 6.44e-05 s⁻¹ | kon [2]: 330000 M⁻¹ s⁻¹

B6: PR300679 (antibody, human IgG1, kappa, V domains shown)
VH: QVQLQESGPGLVKPSGTLSLTCAVSGGSISSSNWWSWVRQPPGKGLEWIGEIYHSGSTNYNPSLKSRVTISVDKSKNQFSLKLSSVTAADTAVYYCAREYSSSWLSVMDAWGQGASVTVSS
VL: not shown
Kd [2]: 0.106 nM | koff [2]: 0.000102 s⁻¹ | kon [2]: 968000 M⁻¹ s⁻¹ | EC50 [3]: 1.03 nM | Maximum (MFI) [3]: 25300 MFI
